Data: paper PMC6611371 (Research and Practice in Thrombosis and Haemostasis, 2019)

Tests used:
Assay in all cases: SPR
FVIIaDV = FVIIaDV (Homo sapiens, UniProt P08709, point mutant)
FVIIaDQ = FVIIaDQ (Homo sapiens, UniProt P08709, point mutant)
FVIIaVQ = FVIIaVQ (Homo sapiens, UniProt P08709, point mutant)

B1: mAb4F5 (antibody, V domains shown)
VH: EVKLVESGGGLVQPGGSRKLSCAASGFTFSDYGMAWVRQAPGKGPEWIAFISNLSRIYYADTVTGRFTISRENDKNTLFLEMSSLRSEDSAIYYCTRDDGYYRVDYWGQGATLTVSS
VL: DIVMTQSHKFLSTSVGNRVSITCKASQDVGIGLVSWYQQKPGQSPKLLIHWASTRHTGVPDRFTGSGSGTDFTLTINNVQSEDLATYFCQQFSNYPLTFGSGTRLEIK
Kd (FVIIaDV): 1.1 nM
koff (FVIIaDV): 0.00016 s⁻¹
Kd (FVIIaDQ): 1.9 nM
koff (FVIIaDQ): 0.00024 s⁻¹
Kd (FVIIaVQ): 130 nM
koff (FVIIaVQ): 0.0035 s⁻¹
